Measurements: the supplement of paper PMC10567573

B1: MTMR15 (parent)
chain: YVKAKKSIDKDEEFAGSSPQSSKS

Variants of: B1
Assay: protein stability index of a GFP-peptide fusion (GPS, HEK-293T) (PSI 1-6); higher = more stable
Settings: c terminus: a fixed tail appended
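Also: lentivirally expressed fusions sorted by FACS into six bins by GFP to DsRed ratio, PSI derived from sequencing read proportions per bin multiplied by bin number.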

Protein stability index: each site, then its substitutions
K23: T 3.46 | G 3.06 | H 3.33 | D 3.11 | Y 2.76 | I 2.76 | V 3.85 | C 3.5 | F 3.02 | L 3 | M 3.1 | S 3.08 | W 2.58 | E 3.55 | A 3.44 | Q 3.32 | N 3.41 | P 3.94 | R 3.4
S22: M 3.06 | V 3.36 | A 3.1 | P 3.22 | D 3.58 | T 2.87 | R 3.59 | C 3.08 | I 3.18 | F 2.89 | Q 2.6 | K 1.92 | N 2.83 | E 3.47 | H 2.77 | W 2.27 | Y 2.78 | G 2.97 | L 2.77
F14: I 3.59 | N 3.49 | Y 3.5 | V 3.61 | H 3.47 | W 2.67 | K 3.29 | L 3.27 | P 3.74 | R 3.25 | G 3.35 | M 3.12 | T 3.55 | Q 2.89 | S 3.46
P19: C 3.23 | H 3.25 | D 3.37 | A 3.19 | E 2.94 | F 2.71 | V 2.21 | N 3.09 | Y 3.02 | I 2.92 | K 2.63 | L 2.54 | R 2.45 | W 2.42 | T 3.5 | S 3.42 | G 3.43 | Q 3.18 | M 3.42
S21: N 3.25 | I 2.67 | M 3.31 | E 3.3 | V 1.22 | Q 3.34 | Y 2.98 | D 3.31 | W 2.41 | H 3.24 | L 2.86 | C 3.01 | G 2.61 | K 2.92 | P 2.95 | R 2.78 | F 3.03 | T 3.1 | A 3.23
G16: W 3.45 | L 2.85 | P 3.36 | Q 3.21 | E 3.36 | K 3.11 | F 2.03 | V 2.42 | D 3.54 | I 2.86 | H 2.71 | C 3.22 | S 3.64 | N 2.98 | T 2.85 | M 3.21 | A 3.07 | Y 2.19 | R 3.06
S24: G 2.93 | T 2.85 | E 3.55 | H 3.33 | N 3.61 | L 2.71 | F 2.79 | V 2.33 | M 3.02 | A 3.29 | Y 2.83 | I 3.19 | R 2.37 | Q 3 | C 3.13 | K 2.58 | W 3.03 | D 2.94 | P 3.02
Q20: D 3.24 | Y 2.62 | V 2.84 | R 2.73 | E 3.29 | H 3.2 | I 2.51 | G 3.27 | K 3.24 | F 2 | W 3.13 | T 3.4 | A 2.66 | P 2.75 | S 2.9 | L 3 | N 2.96 | C 2.82 | M 2.92
S18: H 2.68 | G 3.26 | W 1.7 | L 2.85 | Q 2.93 | N 3.9 | M 2.59 | V 3.38 | A 2.99 | K 3.04 | P 3.04 | I 3.66 | R 3.13 | D 3.18 | Y 2.86 | F 2.67 | C 2.75 | E 3.48 | T 2.64
